Publication PMC7911018, “Effect of Humanizing Mutations on the Stability of the Llama Single-Domain Variable Region” (Biomolecules, 2021)

Biological target: T1, HER2 ectodomain-Fc (96 kDa) (Homo sapiens, UniProt P04626)
T1 construct: human epidermal growth factor receptor 2 (HER2), ectodomain; also called extracellular domain of HER2; human epidermal growth factor receptor 2
Test: SPR; Biacore T100, 25 °C; HER2 ectodomain-Fc amine-coupled on a CM5 chip at 1270 RU; VHHs injected as analytes at 7 concentrations between 250 and 3.5 nM in 20 mM Hepes, 150 mM NaCl, 3 mM EDTA, 0.005% Tween 20, pH 7.4; 1:1 Langmuir fit
Settings: both partners purified

binding result: binds
B1: VHH A10 (anti-HER2 nanobody) (VHH)
VHH: DVQLQASGGGFVQPGGSLRLSCAASGATSNISNMGWFRQAPGKEREFVSAISRAESRPLYYADSVKGRFTISRDNSKNTVYLQMNSLRAEDTATYYCAYMPLVRHKAYWGQGTQVTVSS
notes: anti-HER2 VHH from a synthetic library with camelid FW2 hallmarks FERF; also called A10 wt; source: expressed in bacteria, purified (IMAC, SEC)
